From US20210322524A1 (CASE WESTERN RESERVE UNIVERSITY, published 2021)
Numbering of substitutions follows the chain as printed. Names and notes keep the numbering of the source. Where no end group is shown, it is not given here.

B1: ATAD3A (endogenous, human cells and tissue) (other, UniProt Q9NVI7 2-586, looked up)
chain: SWLFGINKGPKGEGAGPPPPLPPAQPGAEGGGDRGLGDRPAPKDKWSNFDPTGLERAAKAARELEHSRYAKDALNLAQMQEQTLQLEQQSKLKEYEAAVEQLKSEQIRAQAEERRKTLSEETRQHQARAQYQDKLARQRYEDQLKQQQLLNEENLRKQEESVQKQEAMRRATVEREMELRHKNEMLRVEAEARARAKAERENADIIREQIRLKAAEHRQTVLESIRTAGTLFGEGFRAFVTDWDKVTATVAGLTLLAVGVYSAKNATLVAGRFIEARLGKPSLVRETSRITVLEALRHPIQVSRRLLSRPQDALEGVVLSPSLEARVRDIAIATRNTKKNRSLYRNILMYGPPGTGKTLFAKKLALHSGMDYAIMTGGDVAPMGREGVTAMHKLFDWANTSRRGLLLFVDEADAFLRKRATEKISEDLRATLNAFLYRTGQHSNKFMLVLASNQPEQFDWAINDRINEMVHFDLPGQEERERLVRMYFDKYVLKPATEGKQRLKLAQFDYGRKCSEVARLTEGMSGREIAQLAVSWQATAYASEDGVLTEAMMDTRVQDAVQQHQQKMCWLKAEGPGRGDEPSPS
notes: Endogenous protein in lysates
B2: Biotin-conjugated DA1 (peptide)
peptide: YGRKKRRQRRRGGEDKRKT
modifications: also: biotin, position not given here
notes: also called biotin-DA1
B3: Myc-tagged ATAD3A (other, human, UniProt Q9NVI7 1-586, looked up)
chain: MSWLFGINKGPKGEGAGPPPPLPPAQPGAEGGGDRGLGDRPAPKDKWSNFDPTGLERAAKAARELEHSRYAKDALNLAQMQEQTLQLEQQSKLKEYEAAVEQLKSEQIRAQAEERRKTLSEETRQHQARAQYQDKLARQRYEDQLKQQQLLNEENLRKQEESVQKQEAMRRATVEREMELRHKNEMLRVEAEARARAKAERENADIIREQIRLKAAEHRQTVLESIRTAGTLFGEGFRAFVTDWDKVTATVAGLTLLAVGVYSAKNATLVAGRFIEARLGKPSLVRETSRITVLEALRHPIQVSRRLLSRPQDALEGVVLSPSLEARVRDIAIATRNTKKNRSLYRNILMYGPPGTGKTLFAKKLALHSGMDYAIMTGGDVAPMGREGVTAMHKLFDWANTSRRGLLLFVDEADAFLRKRATEKISEDLRATLNAFLYRTGQHSNKFMLVLASNQPEQFDWAINDRINEMVHFDLPGQEERERLVRMYFDKYVLKPATEGKQRLKLAQFDYGRKCSEVARLTEGMSGREIAQLAVSWQATAYASEDGVLTEAMMDTRVQDAVQQHQQKMCWLKAEGPGRGDEPSPS
notes: also called Myc-ATAD3A; ATAD3A-WT (heterodimer partner); not shown: Myc tag (pCMV-Myc vector)
B4: ATAD3A K135Q (Flag-tagged) (other, human, UniProt Q9NVI7 1-586, looked up)
chain: B3 chain with K135Q
notes: Expressed in HEK293 cells; also called K135Q mutant; acetyl-mimetic ATAD3A K135Q mutant; not shown: Flag tag
B5: ATAD3A-Flag protein (human ATAD3A wildtype, Flag-tagged) (other, UniProt Q9NVI7 1-586, looked up)
chain: B3 chain
notes: Made cell-free (TNT system) from pcDNA3.1(+)-ATAD3A-Flag for the in vitro assays, or expressed in HEK293 cells; the same construct is used for both here; also called ATAD3A WT; flag-tagged ATAD3A; not shown: Flag tag
B6: ATAD3A K135R (Flag-tagged) (other, human, UniProt Q9NVI7 1-586, looked up)
chain: B3 chain with K135R
notes: Expressed in HEK293 cells; also called K135R mutant; acetyl-deficient mutant K135R; not shown: Flag tag
B7: ATAD3A K135E (Flag-tagged) (other, human, UniProt Q9NVI7 1-586, looked up)
chain: B3 chain with K135E
notes: Expressed in HEK293 cells; also called K135E mutant; acetyl-deficient mutant K135E; not shown: Flag tag
B8: ATAD3A (endogenous, mouse cells and mouse striatum) (other, UniProt Q925I1 2-591, looked up)
chain: SWLFGIKGPKGEGTGPPLPLPPAQPGAEGGGDRGAGDRPSPKDKWSNFDPTGLERAAKAARELEHSRHAKEALSLAQMQEQTLQLEQQSKLKEYEAAVEQLKSEQIRVQAEERRKTLTEETRQHQARAQYQDKLARQRYEDQLKQQQLLNEENLRKQEESVQKQEAIRRATVEREMELRHKNEMLRVEAEARARAKADRENADIIREQIRLKAAEHRQTILESIRTAGTLLGEGFRAFVTDWDKVTATVAGLTLLAVGVYSAKNATSVAGRYIEARLGKPSLVRETSRISVLEALRHPIQVSRRLVSRPQDALEGVILSPSLEARVRDIAIATRNTKKNKSLYRNVLMYGPPGTGKTLFAKKLALHSGMDYAIMTGGDVAPMGREGVTAMHKVFDWASTSRRGLLLFVDEADAFLRKRATEKISEDLRATLNAFLHRTGQHSSKFMLVLASNQPEQFDWAINDRIDEMVCFALPQREERERLVRMYFDKYVLKPATEGKQRLKVAQFDYGKKCSEVAQLTEGMSGREIAQLAVAWQAMAYSSEDGVLTEAMMDARVQDAVQQHQQKMQWLKVERPDSQTNKPPHPSLLSC
notes: Endogenous protein in lysates; also called endogenous ATAD3A

Tests used:
[1] = molecular target: T1, Drp1 (endogenous, human cells and tissue) (human, UniProt O00429 1-736, limits assumed); test: anti-Drp1 affinity purification and tandem mass spectrometry, neurons from HD patient iPS cells
T1 construct: Endogenous protein in lysates; also called Dynamin-related protein 1

[2] = molecular target: the molecule itself; test: self-association; western blot under non-reducing conditions
[3] = molecular target: ClpP (mitochondrial matrix protein, endogenous in HD striatal cells) (mouse, UniProt O88696 53-272); test: biotin-DA1 with total lysates of HD striatal cells, streptavidin beads, western blot
[4] = molecular target: T2, Drp1 (endogenous, mouse striatal cells and mouse striatum) (mouse, UniProt Q8K1M6 1-736, limits assumed); test: as above
T2 construct: Endogenous protein in lysates; also called Dynamin-related protein 1

[5] = molecular target: T3, VDAC (OMM protein, endogenous in HD striatal cells) (mouse, UniProt Q3U6K8 2-283); test: as above
T3 construct: also called voltage-dependent anion channel

[6] = molecular target: B8; test: biotin-DA1 (10 µM) with total lysates of HD striatal cells, streptavidin beads, western blot
[7] = molecular target: B5; test: biotin-DA1 (10 µM) with purified protein, streptavidin beads, western blot
[8] = molecular target: T4, GST-Drp1 recombinant protein (UniProt O00429-3 1-710, limits assumed); test: biotin-DA1 with purified protein, streptavidin beads, western blot
T4 construct: Bought (Abnova); also called Dynamin-related protein 1; not shown: GST tag

[9] = molecular target: B5; test: co-IP
[10] = molecular target: the molecule itself; test: self-association; western blot with or without β-ME, HEK293 cells
[11] = molecular target: T1, Drp1 (endogenous, human cells and …); test: IP of total lysates of transfected HEK293 cells
Myc-tagged ATAD3A = molecular target: B3; test: anti-Flag IP, anti-Myc western blot

T1 sequence (O00429 whole entry): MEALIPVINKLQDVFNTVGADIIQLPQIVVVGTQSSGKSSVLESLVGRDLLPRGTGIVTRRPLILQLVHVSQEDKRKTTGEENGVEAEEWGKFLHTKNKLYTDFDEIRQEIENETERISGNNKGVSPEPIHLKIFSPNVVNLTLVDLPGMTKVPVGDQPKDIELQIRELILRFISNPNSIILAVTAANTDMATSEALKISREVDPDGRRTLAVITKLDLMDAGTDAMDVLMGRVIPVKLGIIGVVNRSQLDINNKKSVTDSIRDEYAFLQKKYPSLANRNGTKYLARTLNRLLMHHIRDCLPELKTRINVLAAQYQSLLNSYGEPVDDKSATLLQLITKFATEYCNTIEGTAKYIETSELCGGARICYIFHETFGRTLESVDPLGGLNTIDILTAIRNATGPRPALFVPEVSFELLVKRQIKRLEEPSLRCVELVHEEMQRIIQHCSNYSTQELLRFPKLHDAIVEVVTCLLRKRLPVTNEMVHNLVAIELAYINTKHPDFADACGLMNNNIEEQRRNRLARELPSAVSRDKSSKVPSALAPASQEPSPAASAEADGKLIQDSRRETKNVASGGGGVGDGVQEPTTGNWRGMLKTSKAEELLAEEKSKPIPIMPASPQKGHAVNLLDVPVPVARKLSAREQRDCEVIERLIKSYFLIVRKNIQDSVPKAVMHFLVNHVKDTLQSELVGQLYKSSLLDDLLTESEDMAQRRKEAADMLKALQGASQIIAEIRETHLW
Sequence of ClpP (mitochondrial matrix protein, endogenous in HD striatal cells) (O88696 53-272 limits assumed): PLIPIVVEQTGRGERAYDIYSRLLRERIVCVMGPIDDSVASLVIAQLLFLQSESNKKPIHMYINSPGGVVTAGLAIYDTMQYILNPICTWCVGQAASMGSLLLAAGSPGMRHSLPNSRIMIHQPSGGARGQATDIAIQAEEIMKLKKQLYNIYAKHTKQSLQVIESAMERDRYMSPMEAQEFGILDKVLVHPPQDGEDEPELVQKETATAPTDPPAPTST
T2 sequence (Q8K1M6 whole entry): as the sequence (O00429 whole entry) above, with I57V, Q72P, I134V, V528G, S548P, S563N, A571P, G573A, V577I, V581G counted along it
T4 sequence (O00429 other isoform, or with tags, fused parts or gaps limits assumed): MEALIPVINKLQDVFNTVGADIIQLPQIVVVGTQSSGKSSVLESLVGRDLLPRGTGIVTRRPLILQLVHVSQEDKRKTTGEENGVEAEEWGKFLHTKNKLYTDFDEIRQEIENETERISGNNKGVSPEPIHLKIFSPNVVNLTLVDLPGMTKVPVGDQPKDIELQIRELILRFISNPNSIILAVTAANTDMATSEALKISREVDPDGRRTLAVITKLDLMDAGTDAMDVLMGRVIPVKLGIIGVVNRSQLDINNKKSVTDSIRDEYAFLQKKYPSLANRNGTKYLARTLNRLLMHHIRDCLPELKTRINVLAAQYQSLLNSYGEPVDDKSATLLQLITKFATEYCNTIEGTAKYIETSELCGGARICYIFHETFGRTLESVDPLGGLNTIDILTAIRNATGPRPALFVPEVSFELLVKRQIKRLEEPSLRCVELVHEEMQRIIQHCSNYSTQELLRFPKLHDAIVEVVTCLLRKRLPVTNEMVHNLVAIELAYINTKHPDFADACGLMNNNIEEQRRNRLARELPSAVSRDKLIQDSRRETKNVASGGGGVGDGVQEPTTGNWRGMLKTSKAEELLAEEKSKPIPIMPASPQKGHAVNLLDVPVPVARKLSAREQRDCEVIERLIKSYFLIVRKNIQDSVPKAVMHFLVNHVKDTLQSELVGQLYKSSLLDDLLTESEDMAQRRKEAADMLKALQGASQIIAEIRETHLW

B1: binds [1]; binds [2].

B2: no binding (tested: 10 µM) [3]; no binding (tested: 10 µM) [4]; no binding (tested: 10 µM) [5]. B2: binds [6]; binds [7]; no binding (tested: 10 µM) [8].

B3: binds [9].

B4: binds [10]; no binding [11]; binds (Myc-tagged ATAD3A).

B5: binds [10].

B6: binds [10]; binds [11].

B7: binds [10]; binds [11]; binds (Myc-tagged ATAD3A).

B8: binds [2].
